Results on four molecules are retold here after publication PMC3130887 (Nature structural & molecular biology, 2011).

A word on the Kd: it is the equilibrium constant for the complex coming apart.

Experiment [1] deals with ADD_(ATRX) (ATRX fragment 167–289) (human) (UniProt P46100). Nature of the experiment: ITC.
For another experiment, the target named is T1, ADDATRX (Homo sapiens, UniProt P46100, F284Y/K251R).
T1 sequence (P46100 167-289 K251R/F284Y): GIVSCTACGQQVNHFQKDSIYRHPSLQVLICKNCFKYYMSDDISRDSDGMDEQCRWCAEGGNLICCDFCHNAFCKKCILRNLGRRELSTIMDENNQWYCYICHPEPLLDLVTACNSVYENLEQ
The format is binding. The following applies: wild type ADDATRX; Kd n.d. in Fig. 4b.

The target in experiment [2] is ADD_(ATRX) Y203A mutant (purified, for ITC) (human) (UniProt P46100). Nature of the experiment: ITC. In general terms: ITC needs no label: the signal is the heat of the interaction.
The target of experiment [3] is unmodified H3 tail (as used in the SPR assay). Nature of the experiment: SPR. On the technique in general: SPR reads the build-up and loss of mass on a sensor chip optically.

In experiment [1], “H3 peptide trimethylated at both Lys4 and Lys9” showed a Kd of 4.9 µM and a dH of -12 kcal/mol.
For “H3_5–13K9me3: synthetic H3 peptide, residues 5–13, Lys9 trimethylated (QTARKSTGG; trimethyl-lysine at 9)”, the “binding in ITC titration” value with ADDATRX is “totally lost”.
In experiment [2], “H3_(1–15)K9me3 peptide (from UniProt P68431 2-16)” had an equilibrium dissociation constant (Kd) of 4.6 µM and a dH of -4.7 kcal/mol.

B1: ADD_(ATRX) (as used in the SPR assay) (domain or fragment)
chain: KRGEDGLHGIVSCTACGQQVNHFQKDSIYRHPSLQVLICKNCFKYYMSDDISRDSDGMDEQCRWCAEGGNLICCDFCHNAFCKKCILRNLGRKELSTIMDENNQWYCYICHPEPLLDLVTACNSVFENLEQLLQQNKK
In the case of B1, the equilibrium dissociation constant (Kd) in experiment [3] turned out to be 3.2 µM.
